# Measurements taken from a protein production outcome set (Wang et al. 2014).
# Assay: label from the status in PepcDB records
row,Sequence,protein production
1,MTAKPAVVGGFILGALALGVAAIVLFGGQRLFTSTREVVVFFNESVAGLQVGAPVTFHGVPVGTVKTIALRVSTRDLSARIPVVLELQPDQISWEGEHLNGDDDTYQRLIAAGLRAQLAPQSIVTGQMRVDLDFKPGTSAALSGEPTDLPEIPAVASDLDELRDKVTELPLRDLVETAQKTLANVQALTSSLNTRIPTLTTSAEQSVAVATQTLVTTQEAVRQIQADASVTLKELSDLLADLHRQVDARGGELGKTLSAAERTARQAESLMISLNELAGPRARFRADLEAAARDLSASASSTRSFTRTLERDPSALLSGDTKR,failed
2,MKLSCVIVSHNMKNYIGRCIDSVRTALADIRSLVGEAEIIVVDRGSTDGTANAARTAYADVTIVDVPFDAGWATAANKGACAATGETLLFVSPEVELLSGGLPRLLEHLETNPACAIAGGAVVSTSGALLHGPARFPGLLGKLAALTGLGSRFPRTMLDWTRYGGRNLDLPLEVDSVSFDYAVVKAAAFCKLGRFDARFHTAFADTDLCRRASRTMLPRPTVAFVPQARARAQDNFVLRDEVQAFDLHGTAVVRGRVRCEMLYVWKNYCILTSLANTTLELVGQACRYAMGLLPVIGCDKTARHSAAVLKETAQAALDTQLGSQYPTTPWLEHHHHHH,failed
3,MKKNYTYPFTAIVGQEEMKLALILNIINPAISGVLIRGEKGTAKSTAVRALADILPEIEVIAGIPFNLAPDEDDETIRECFTVTGHAMPDPDNLEVTMHKVQVVELPVGATEDRVVGTLDLEHALKTGEKRIEPGLLAAAHRGILYVDEVNLLDDHVVDVLLDSAAMGVNTIEREGVSFSHPARFTLVGTMNPEEGELRPQLLDRFGLCVHVGGIADPQDRVTVMERRFAFEQDQERFCSEWQGESSKLAERIVAARELYPSVTISREHLLGIAKSCLKVGVDGHRGDIIIMKTAKTIAAWEGRHCVGSDDIDRAVALALPHRIRRQPLQDMVMDVGSLLGSKCTTN,failed
4,MSSAKSARYNRFSGGPANLPASDSSGTRMETTFGPTFSTVTTITKAADGTSTYKQHRRTPSSSSTLAYSPRDEEDGMPPINTPRRSDSAISVRSLHSESSMSLRSTFSLPEEEEEPEPLVFAEQPSVKLCCQLCCSVFKDPVITTCGHTFCRRCALKSEKCPVDNAKLTVVVNNIAVAEQIGELFIHCRHGCRAAGTGKPGVFEVDPRGCPFTIKLSARKDHESSCDYRPVRCPNNPSCPPLLKMNLEAHLKECEHIKCPHSKYGCTFIGNQDTYETHLETCRFEGLKEFLQQTDDRFHEMHVALAQKDQEIAFLRSMLGKLSEKIDQLEKSLELKFDVLDENQSKLSEDLMEFRRDASMLNDELSHINARLNMGILGSYDPQQIFKCKGTFVGHQGPVWCLCVYSMGDLLFSGSSDKTIKVWDTCTTYKCQKTLEGHDGIVLALCIQGCKLYSGSADCTIIVWDIQNLQKVNTIRAHDNPVCTLVSSHNMLFSGSLKAIKVWDIVGTELKLKKELTGLNHWVRALVAAQSYLYSGSYQTIKIWDIRTLDCIHVLQTSGGSVYSIAVTNHHIVCGTYENLIHVWDIESKEQVRTLTGHVGTVYALAVISTPDQTKVFSASYDRSLRVWSMDNMICTQTLLRHQGSVTALAVSRGRLFSGAVDSTVKVWTC,failed
5,GEKIFVRVTSVGRNNCRVDCYGIEYRVPINEIDYGYIDKVDKYVQVGDVVPAIIKELDIDNNIVVVSIKEAKEDPYLGIVKSLNKG,failed
6,MTIKALFWDIGGVLLTNGWDREQRADVAQRFGLDTDDFTERHRLAAPELELGRMTLAEYLEQVVFYQPRDFTPEDFRAVMEEQSQPRPEVLALARDLGQRYRMYSLNNEGRDLNEYRIRTFGLGEFLLAFFTSSALGVMKPNPAMYRLGLTLAQVRPEEAVMVDDRLQNVQAARAVGMHAVQCVDAAQLREELAALGVR,not failed
7,MNHFTPAQQRKALGYLVLFHLVIIASSNYLVQIPFTIFGFHTTWGAFTFPFIFLATDLTVRIFGAGLARKIIFLVMLPALAVSYLLSVVFFEGQYQGLAPLSEFNLFVARIAIASFMAYLLGQIMDVHVFNRLRQMKQWWVAPTCSTLFGNALDTIAFFSIAFYQSSDPFMAEHWTEIALVDYTFKLIISLGLFVPMYGVLLNYLIKKLTAVNPNFAMASAKA,failed
